Assay results: paper PMC3335016, “Analysis of the Nse3/MAGE-Binding Domain of the Nse4/EID Family Proteins” (PLoS ONE, 2012)

B1: EID2 WT peptide (aa 197-217) [modified: biotin, linked via the SGSG spacer; biotin, linked via the SGSG spacer] [human] / His-S-MAGEC2(129-339) [human] (parent complex)
chain 1: QRNPHRVDLDILTFTIALTAS
chain 2: GLPDSESSFTYTLDEKVAELVEFLLLKYEAEEPVTEAEMLMIVIKYKDYFPVILKRAREFMELLFGLALIEVGPDHFCVFANTVGLTDEGSDDEGMPENSLLIIILSVIFIKGNCASEEVIWEVLNAVGVYAGREHFVYGEPRELLTKVWVQGHYLEYREVPHSSPPYYEFLWGPRAHSESIKKKVLEFLAKLNNTVPSSFPSWYKDALKD

Variants of: B1
Test: PEPSCAN-ELISA; parent: 100; read off a plot

Variant | percent of parent
chain 1 V7A | ~34%
chain 1 T13A | ~46%
chain 1 N3A | ~58%
chain 1 T15A | ~67%
chain 1 H5A | ~38%
chain 1 D8A | ~86%
chain 1 P4A | ~45%
